Experimental data from FireProtDB (doi:10.1046/j.1432-1327.1999.00751.x).
Values joined by “and” are separate entries in the source; they are usually repeats but may differ in a detail not shown here. Identical values can stand only once.

B1: Azurin, P00282 (parent)
chain: MLRKLAAVSLLSLLSAPLLAAECSVDIQGNDQMQFNTNAITVDKSCKQFTVNLSHPGNLPKNVMGHNWVLSTAADMQGVVTDGMASGLDKDYLKPDDSRVIAHTKLIGSGEKDSVTFDVSKLKEGEQYMFFCTFPGHSALMKGTLTLK

Variants of: B1
Details: Pseudomonas aeruginosa (strain ATCC 15692 / DSM 22644 / CIP 104116 / JCM 14847 / LMG 12228 / 1C / PRS 101 / PAO1); pH 7.2; 20 °C; GdnHCl; CD + Fluorescence; Tris-HCl 50 mM; reversible: yes; structure 5AZU; whole UniProt chain shown

Variant	ddG of mutation (higher = less stable)	denaturant m value	denaturant midpoint (higher = more stable)	unfolding free energy
F130S	4.6 kcal/mol and 3.7 kcal/mol	3.6 kcal/mol/M and 3.2 kcal/mol/M	1.24 M and 0.86 M	4.8 kcal/mol and 2.7 kcal/mol
I27S	3.6 kcal/mol and 3 kcal/mol	3.6 kcal/mol/M and 3.4 kcal/mol/M	1.61 M and 1.02 M	5.8 kcal/mol and 3.4 kcal/mol
